# The supplement of paper PMC9732359
# ± gives the uncertainty stated by the source.
# Assay: protein stability index of a GFP-peptide fusion (yeast GPS) (PSI 1-4); higher = more stable; sorted into four equal gates, so the index is relative within each strain
# Conditions: doa10∆
# How it was run: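 Peptides tiling yeast proteins in 17-residue segments were fused downstream of GFP, with Cherry expressed from the same plasmid. As a pooled library in yeast, mid-log cultures grown in leucine-free medium were sorted into four equal gates by GFP/Cherry fluorescence ratio. Gate plasmids were PCR-amplified and Illumina-sequenced, and barcodes linked reads to strains. Each peptide received a protein stability index equal to the sum of each gate's read frequency times its gate number.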
row,Sequence,protein stability index
1,LLSLNSVRSLQKRIENG [SRP68],2.13 ± 0.069
2,LLTPKSGEPIIAATQDF [RPO31],2.92 ± 0.16

# Same assay, conditions: pdr5∆
row,Sequence,protein stability index
1,LADYIVEVLLVNYNSDM [NUT1],1.35 ± 0.037
2,LAELINMTTIADRNDDD [SRB6],2.64 ± 0.078
3,LAKKIAPGKVELAINLI [SMC2],2.88 ± 0.15
4,LAPSKHQPITSEQKMKE [SIR4],2.37 ± 0.098
5,LARDTPSANNSSSIKST [RRP4],2.91 ± 0.057
6,LARHLPAELDLRGSLLS [RPC82],3.16 ± 0.11
7,LASNFDNFDYFNQRDGE [MED1],3.17 ± 0.09
8,LATNSLVEEFMLLANIS [DIS3],1.7 ± 0.099
9,LCLTEFENCYLEGNDIH [FAS1],3.26 ± 0.076
10,LDGDRADKRGVLTGGYL [SMC3],3.03 ± 0.23
11,LDPALLRPGRIDRKVEF [RPT1],3.07 ± 0.28
12,LDPLEMEGNAQPVNFNR [RPO31],3.29 ± 0.081
13,LDRISSYTAFSRLTLLL [PRP8],1.59 ± 0.044
14,LDRRFEIFFKKDSLWQS [FAS1],3.16 ± 0.11
15,LDTLPSEFDSRVKAMEV [RPT5],3.11 ± 0.098
16,LEDELYHTNPGHSQFTS [RPN4],3.15 ± 0.09
17,LEDMVFPTEIVGKRVRY [RPS7B],1.76 ± 0.088
18,LEDQQRQQKLLLETKLR [SWI1],2.65 ± 0.14
19,LEFRWLTSSKSVIVSQF [SIN4],1.56 ± 0.059
20,LEKDAADCQAELTKTKS [YIL149C/MLP2],2.76 ± 0.26
21,LELPLCPYCYKKRREYF [SIR2],2.06 ± 0.057
22,LELTTGATYRGKLVESE [SMD3],3.26 ± 0.084
23,LEPFLLMLEDTDGDSIL [BRR2],3.06 ± 0.089
24,LEQVEFEKNTILQQRSK [MED4],3.44 ± 0.13
25,LERTDLKSKVIDSPELL [RPN7],3.01 ± 0.083

row,Sequence,protein stability index
1,LESEIASSSAKLIEKKS [SMC2],3.03 ± 0.058
2,LESYKTQAKKLYHHTTK [SRP72],2.73 ± 0.096
3,LETEQLSSELDSNKTLL [SMC2],3.32 ± 0.082
4,LEVGRRFSPDEDFEHNN [MCD1],3.45 ± 0.18
5,LFEIVSNADTNQNSDMK [SRB8],2.87 ± 0.29
6,LFEQIGIRIKGKIVGFD [SME1],1.85 ± 0.1
7,LFEQLQTVSNKEDAKAT [SRP54],3.04 ± 0.1
8,LFGSPPFILEYDLMAPN [YMR129W/POM152],2.9 ± 0.094
9,LFGSSNNNNNNNNSNNI [YGL172W/NUP49],2.33 ± 0.056
10,LFKYQGHIGAYLIVAGV [PUP1],2.04 ± 0.06
11,LFQTIEKLINNSDDCMM [ECM29],2.92 ± 0.072
12,LFSLLELGEQKCQELVT [RRP46],1.8 ± 0.056
13,LFSPEEVRAISVAKIRF [RPO21],2.31 ± 0.088
14,LFVFTEGWPKFQDTLYK [QCR10],2.91 ± 0.22
15,LFVISTEISPMAGSQFE [RRP45],2.21 ± 0.06
16,LGFEVKDQALIGTINSI [SIR2],2.48 ± 0.062
17,LGLEYIIRLLPINLENN [SRB8],1.33 ± 0.058
18,LGPRGVSITPGKIEKIA [SRP21],2.62 ± 0.049
19,LGQLYVTMGAKDKLREF [RPN6],3.13 ± 0.11
20,LGSHSSSQKDGNDFKFN [REC8],3.24 ± 0.063
21,LGVPRIKEIINASKVIS [RPO31],2.59 ± 0.2
22,LHKRLHGVSFKKRAPRA [RPL31A],2.73 ± 0.13
23,LHLANEHGLQITHTENY [BRN1],2.79 ± 0.13
24,LIALSLIMALLQFRPAP [SMC2],1.3 ± 0.026
25,LIARRDDESPRFVMPNQ [RRP6],3.32 ± 0.07

row,Sequence,protein stability index
1,LICSIGLHSSEYKLRSL [ECM29],2.41 ± 0.05
2,LIEILRLRALQLYFQKN [RRI2],1.28 ± 0.072
3,LIEKEIQPKITELKKKL [SMC1],2.91 ± 0.089
4,LIENCKKRNMPLQSIPE [SWI1],2.86 ± 0.056
5,LIEPLPTESYLQYIIHD [BRR2],2.96 ± 0.065
6,LIESGIGTHHAGLTRSD [BRR2],3.5 ± 0.13
7,LIIIAANTPVLRKSELE [RPL30],2.68 ± 0.14
8,LIIKYQKYWESMRIQIL [GAL11],1.95 ± 0.076
9,LINDSYINDVHLLYPPH [SSN8],3.14 ± 0.057
10,LINIDTSIANAFRRIMI [RPC40],2.83 ± 0.054
11,LINLAKTRVGSVTAQVY [RPC82],1.66 ± 0.065
12,LIQDLLHRLTPKNVKGE [RPN1],3.27 ± 0.11
13,LIQKLQNSANNNSDDED [IRR1],3.08 ± 0.074
14,LIQLGVKPLESSAKRSK [SRP72],2.97 ± 0.11
15,LIQSYSLLDKPDEAIEK [FAS1],2.75 ± 0.084
16,LIVRAKNHTHNLPGNIT [RRP4],2.96 ± 0.049
17,LKCAERQLTSMEFSNLY [NUT1],1.87 ± 0.034
18,LKEPVEDIIKRTSPIDN [NUT2],3.09 ± 0.1
19,LKHVLQLIFRQQTGLVD [SNU114],1.58 ± 0.076
20,LKIQFILSTTLDPTDDE [SIN4],2.33 ± 0.081
21,LKIYKVGDIVDIKANGS [RPL21B],1.88 ± 0.05
22,LKKDIESLRGILHVRAQ [SRP72],2.39 ± 0.12
23,LKKFRESLVHSALCILK [BRR2],2.1 ± 0.073
24,LKKGEQKTQELNAKYQS [ISW2],3.22 ± 0.047
25,LKKIRAHRGIRHFWGLR [RPS18A],2.74 ± 0.078

row,Sequence,protein stability index
1,LKKQLHVSHEAMREVND [YIL149C/MLP2],2.24 ± 0.058
2,LKLCVQELEKRMPMDFK [PRE1],3.34 ± 0.099
3,LKMMKLIVDTHVQFRLG [PRP8],2.21 ± 0.075
4,LKRADYTAVDTAKLQMR [RPN14],3.33 ± 0.23
5,LKRNRIRNARSIRAEAV [POP1],2.44 ± 0.1
6,LKSESATSQYLKQDLKK [YGL172W/NUP49],2.88 ± 0.072
7,LKSKVIDSPELLSLIST [RPN7],2.63 ± 0.045
8,LKSPVLSKLCVPVANQF [QCR7],2.45 ± 0.065
9,LKTEAANVLDPSLRKLI [BRR2],2.61 ± 0.059
10,LKWSACTSLMDIIVAIK [IRR1],2.72 ± 0.057
11,LLAEYDNIYRNLQKIDK [MED4],2.69 ± 0.042
12,LLAKRLSERKAEKAEIR [RPS6A],3.54 ± 0.11
13,LLCALDRKDQDDRDHFG [RPB2],3.28 ± 0.067
14,LLERGRLRKRVTIIPLD [SMC2],2.71 ± 0.059
15,LLETKLRQQYEIELKKL [SWI1],2.96 ± 0.1
16,LLFINSSKLVDVYTLPS [YML103C/NUP188],2 ± 0.05
17,LLFWTDPRNLVNQTGST [YCG1],2.66 ± 0.064
18,LLGIDATVPSGRPETYI [RPO31],2.32 ± 0.15
19,LLGKDNEDDALIYGISD [AAR2],3.14 ± 0.14
20,LLGPTLEDHTPPEDKPN [QCR10],2.81 ± 0.064
21,LLHSKPSLLLQKDQDGR [NAS6],3.33 ± 0.13
22,LLIHRKGLTYLHLDYNF [PRP8],1.28 ± 0.034
23,LLLRCDDRVDKKFVSQI [POP3],3.34 ± 0.066
24,LLLSPDQWYCIDKLEDL [ITC1],3.4 ± 0.11
25,LLPTIKRTICKKCHRLL [RPR2],2.36 ± 0.054
